Results on 1 molecule are retold here after publication PMC13462943.

The target of test [1] is T1, N-terminal histone H3 peptide (amino acid residues 1-20), P68431. As to the kind of experiment: differential scanning fluorimetry. Conditions: chain shown with the change; 500 µM histone H3 peptide; parent: est. 4.4; read off a plot. (DSF heats the sample and reads unfolding from a dye or from intrinsic fluorescence.)
The target of test [2] is T2, G9a methyltransferase domain (aa residues 913-1193), Del 1163-4, Q96KQ7-1.
T2 chain: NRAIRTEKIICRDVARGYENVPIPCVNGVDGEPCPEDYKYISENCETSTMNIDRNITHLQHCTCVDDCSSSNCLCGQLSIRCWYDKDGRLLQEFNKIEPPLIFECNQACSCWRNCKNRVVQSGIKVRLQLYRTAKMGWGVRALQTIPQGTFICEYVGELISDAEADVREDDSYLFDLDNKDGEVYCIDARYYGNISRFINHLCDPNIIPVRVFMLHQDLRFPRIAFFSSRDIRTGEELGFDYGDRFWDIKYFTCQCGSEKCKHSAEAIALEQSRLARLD
Nature of the test: native mass spectrometry (nESI-MS). The note with it: chain shown with the change;; read off a plot.

The target of test [3] is T1, N-terminal histone H3 peptide (amino …). Nature of the test: native mass spectrometry. The note with it: chain shown with the change, protein and substrate concentrations 5 µM.

B1: G9a methyltransferase domain (aa residues 913-1193), wild type, Q96KQ7-1 S1163del; K1164del (protein)
chain: T2 chain
Consider B1, for which the other: ΔTm upon substrate addition in test [1] is 2.3 °C. Also, in test [2], the ratio to parent came to 0.58. For the same molecule, the other: relative abundance, 2x peptide bound in test [3] (parent: 24) was less than 1. The other: relative abundance, free protein in test [3] (parent: 30) came out at 88. Moreover, the other: relative abundance, 1x peptide bound in test [3] (parent: 46) was determined as 11.
